Results on two molecules are retold here after patent US20050108782A1, “Transgenic RS1-/- animal and uses thereof” (priority 2003, published 2005).

For one data set, the target named is T1, hSGLT1 (Homo sapiens, UniProt P13866).
T1 construct: expressed in transfected cells; host or cells: Xenopus laevis oocytes (cRNA injection)
T1 sequence (P13866 1-664): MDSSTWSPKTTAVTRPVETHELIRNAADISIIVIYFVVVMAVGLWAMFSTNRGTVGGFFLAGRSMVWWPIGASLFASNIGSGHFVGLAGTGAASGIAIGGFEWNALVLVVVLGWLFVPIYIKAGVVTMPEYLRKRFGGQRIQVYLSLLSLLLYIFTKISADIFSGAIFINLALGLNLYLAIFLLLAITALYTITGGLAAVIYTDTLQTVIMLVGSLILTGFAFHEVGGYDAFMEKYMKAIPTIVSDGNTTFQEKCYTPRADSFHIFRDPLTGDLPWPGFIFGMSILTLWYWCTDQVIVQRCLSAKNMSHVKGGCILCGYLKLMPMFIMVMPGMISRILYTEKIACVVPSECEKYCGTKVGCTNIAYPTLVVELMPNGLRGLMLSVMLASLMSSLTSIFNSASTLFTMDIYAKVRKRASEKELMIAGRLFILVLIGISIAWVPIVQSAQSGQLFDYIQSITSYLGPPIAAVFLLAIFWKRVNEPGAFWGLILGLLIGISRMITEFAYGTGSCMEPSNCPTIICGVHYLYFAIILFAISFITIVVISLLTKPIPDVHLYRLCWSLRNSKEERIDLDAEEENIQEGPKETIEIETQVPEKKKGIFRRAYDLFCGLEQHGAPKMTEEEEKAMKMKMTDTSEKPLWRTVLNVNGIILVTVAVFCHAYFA
As to the kind of experiment: [14C]AMG uptake expressed by hSGLT1 in Xenopus laevis oocytes. In kind it is cell-based. The method, then:
(§1) Stage V-VI oocytes were removed from Xenopus laevis clawed toads, selected and injected with cRNAs or water as described earlier (Veyhl et al., (1994) J. Biol. Chem. 268, 25041-25053). Per oocyte […] of water (control) or water containing plasma membrane transporter cRNAs alone or together with different amounts of hRS1-cRNA were injected. For translation the injected oocytes were incubated for 2-3 days (16° C.) in ORi buffer (5 mM HEPES-Tris, pH 7.4, 100 mM NaCl, 3 mM KCl, 2 mM CaCl and 1 mM MgCl2) containing 50 mg/l gentamycin (Veyhl et al., (1994) J. Biol. Chem. 268, 25041-25053).
(§2) [^14C]-AMG uptake of expressed plasma membrane transporters in oocytes was measured as described earlier Veyhl et al., (1994) J. Biol. Chem. 268, 25041-25053. Each uptake value represents the mean±SEM (n=8-10 oocytes). All experiments were performed with at least 3 batches of Xenopus oocytes.
Dynamin, a member of structurally related but functionally heterogeneous family of GTPases, that is required for clathrin-mediated and other types of endocytosis. After GTP binding dynamin assembles to a ring around the neck of coated pits and induces fission and release of vesicles upon hydrolysis of GTP (Eccleston et al., (2002) Eur. Biophys. J. 31, 275-282.). […] Oocytes were injected with 2.5 ng of hSGLT1-cRNA or with 2.5 ng pf hSGLT1-cRNA plus 10 ng of hRS1-cRNA. In some experiments either 10 ng of wild-type (DyWt) dynamin cRNA or 10 ng of dominant gegative dynamin mutant (DyMu) cRNA were coinjected. After three days of incubation for expression, phlorizin inhibitable uptake of 50 μM of [^14C]AMG was measured over a time period of 15 min as described earlier (Lambotte et al., (1996) DNA Cell Biol. 15, 769-777).
According to the methods described in Example 11 Xenopus oocytes were injected with 2.5 ng of SGLT1-cRNA or with 2.5 ng of SGLT1-cRNA plus 10 ng of hRS1 and incubated three days for expression (FIG. 11). Then the oocytes were injected with 50 nl Ori buffer (controls) or with 50 nl Ori buffer containing 20 μM of the protein kinase C activator sn-1,2-dioctanoyl glycerol (DOG). After 30 min incubation the phlorizin inhibitable uptake of 50 μM [^14C]AMG was measured as in FIG. 10.

The next data set relates to hSGLT1 and hRS1. As to the kind of experiment: [14C]AMG uptake in Xenopus laevis oocytes coexpressing hSGLT1 and hRS1, with protein kinase C activation. The format is cell-based, human. To be noted: coexpression of hSGLT1 and hRS1; 50 nl Ori buffer containing 20 μM DOG injected, 30 min incubation; 50 μM [14C]AMG. The method, then:
as §1, §2
According to the methods described in Example 11 Xenopus oocytes were injected with 2.5 ng of SGLT1-cRNA or with 2.5 ng of SGLT1-cRNA plus 10 ng of hRS1 and incubated three days for expression (FIG. 11). Then the oocytes were injected with 50 nl Ori buffer (controls) or with 50 nl Ori buffer containing 20 μM of the protein kinase C activator sn-1,2-dioctanoyl glycerol (DOG). After 30 min incubation the phlorizin inhibitable uptake of 50 μM [^14C]AMG was measured as in FIG. 10. […]

Turning to `CCCCCCCC(=O)OC[C@H](CO)OC(=O)CCCCCCC` [DOG, sn-1,2-dioctanoyl glycerol, reference compound], the “uptake of AMG expressed by hSGLT1, change by DOG” value at hSGLT1 (hSGLT1 alone, 50 nl Ori buffer containing 20 μM DOG injected, 30 min incubation, 50 μM [14C]AMG) is reported as “increased”. In addition, the “expressed uptake of AMG, change by DOG” value with hSGLT1 and hRS1 is listed as “decreased”.

B1: hRS1: human RS1 protein, expressed in Xenopus oocytes from injected hRS1-cRNA; regulator of SGLT1 (protein, UniProt Q92681 1-617, looked up)
Regulatory solute carrier …: MSSLPTSDGFNHPARSSGQSPDVGNPMSLARSVSASVCPIKPSDSDRIEPKAVKALKASAEFQLNSEKKEHLSLQDLSDHASSADHAPTDQSPAMPMQNSSEEITVAGNLEKSAERSTQGLKFHLHTRQEASLSVTSTRMHEPQMFLGEKDWHPENQNLSQVSDPQQHEEPGNEQYEVAQQKASHDQEYLCNIGDLELPEERQQNQHKIVDLEATMKGNGLPQNVDPPSAKKSIPSSECSGCSNSETFMEIDTAQQSLVTLLNSTGRQNANVKNIGALDLTLDNPLMEVETSKCNPSSEILNDSISTQDLQPPETNVEIPGTNKEYGHYSSPSLCGSCQPSVESAEESCPSITAALKELHELLVVSSKPASENTSEEVICQSETIAEGQTSIKDLSERWTQNEHLTQNEQCPQVSFHQAISVSVETEKLTGTSSDTGREAVENVNFRSLGDGLSTDKEGVPKSRESINKNRSVTVTSAKTSNQLHCTLGVEISPKLLAGEEDALNQTSEQTKSLSSNFILVKDLGQGIQNSVTDRPETRENVCPDASRPLLEYEPPTSHPSSSPAILPPLIFPATDIDRILRAGFTLQEALGALHRVGGNADLALLVLLAKNIVVPT
Take B1: in the data set with hSGLT1 (2.5 ng SGLT1-cRNA plus 10 ng hRS1, three days, FIG. 11), the “expression of AMG uptake by hSGLT1 after coexpression of hRS1” value is “reduced”. The “phlorizin inhibitable uptake of 50 μM [14C]AMG” value with hSGLT1 (2.5 ng hSGLT1-cRNA plus 10 ng hRS1-cRNA, three days expression, hSGLT1 alone 56±7) turned out to be 10±1.5 pmol/oocyte×15 min; with hSGLT1 (hSGLT1-cRNA plus hRS1-cRNA, 10 ng dominant negative dynamin mutant (DyMu) cRNA coinjected), 37±3.5 pmol/oocyte×15 min; in the data set with hSGLT1 (hSGLT1-cRNA plus hRS1-cRNA, 10 ng wild-type dynamin (DyWt) cRNA coinjected), 2.5 pmol/oocyte×15 min. Further, the “Km value of AMG uptake expressed by hSGLT1” value with hSGLT1 (coexpression with hRS1, unpublished data not shown) is on record as “does not change”. In addition, the “Vmax of AMG transport by hSGLT1 after coexpression with hRS1” value with hSGLT1 (tracer uptake studies and electrical measurements, unpublished data not shown) was “decreased”.
